Experimental data reported in publication PMC12469269 (2025).

Legend:
Test in all cases: SPR
Mortalin peptide #56 = Mortalin peptide #56 (UniProt P38646)
[1] = target: T1, Recombinant Human Vimentin Protein, CF (human, UniProt P08670 1-466)
[2] = target: T2, Recombinant Human GRP75/HSPA9B/Mortalin His Protein (human, UniProt P38646 47-679)
Mortalin peptide #62 = Mortalin peptide #62 (UniProt P38646)
[3] = target: T1, Recombinant Human Vimentin Protein, CF; remark: listed apart in the source
[4] = target: T2, Recombinant Human GRP75/HSPA9B/Mortalin …; remark: listed apart in the source

T1 sequence (P08670 whole entry): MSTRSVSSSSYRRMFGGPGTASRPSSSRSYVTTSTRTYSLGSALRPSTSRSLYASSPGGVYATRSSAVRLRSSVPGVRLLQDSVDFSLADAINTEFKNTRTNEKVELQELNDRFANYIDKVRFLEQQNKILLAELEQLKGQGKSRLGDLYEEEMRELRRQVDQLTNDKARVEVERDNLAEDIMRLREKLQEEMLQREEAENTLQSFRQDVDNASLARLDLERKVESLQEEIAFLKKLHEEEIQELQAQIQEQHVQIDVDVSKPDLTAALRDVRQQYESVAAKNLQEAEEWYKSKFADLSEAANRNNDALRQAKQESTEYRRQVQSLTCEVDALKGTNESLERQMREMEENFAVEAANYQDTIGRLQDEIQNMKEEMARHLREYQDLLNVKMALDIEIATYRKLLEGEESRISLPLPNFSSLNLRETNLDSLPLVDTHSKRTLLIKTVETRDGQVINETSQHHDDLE
T2 sequence (P38646 47-679): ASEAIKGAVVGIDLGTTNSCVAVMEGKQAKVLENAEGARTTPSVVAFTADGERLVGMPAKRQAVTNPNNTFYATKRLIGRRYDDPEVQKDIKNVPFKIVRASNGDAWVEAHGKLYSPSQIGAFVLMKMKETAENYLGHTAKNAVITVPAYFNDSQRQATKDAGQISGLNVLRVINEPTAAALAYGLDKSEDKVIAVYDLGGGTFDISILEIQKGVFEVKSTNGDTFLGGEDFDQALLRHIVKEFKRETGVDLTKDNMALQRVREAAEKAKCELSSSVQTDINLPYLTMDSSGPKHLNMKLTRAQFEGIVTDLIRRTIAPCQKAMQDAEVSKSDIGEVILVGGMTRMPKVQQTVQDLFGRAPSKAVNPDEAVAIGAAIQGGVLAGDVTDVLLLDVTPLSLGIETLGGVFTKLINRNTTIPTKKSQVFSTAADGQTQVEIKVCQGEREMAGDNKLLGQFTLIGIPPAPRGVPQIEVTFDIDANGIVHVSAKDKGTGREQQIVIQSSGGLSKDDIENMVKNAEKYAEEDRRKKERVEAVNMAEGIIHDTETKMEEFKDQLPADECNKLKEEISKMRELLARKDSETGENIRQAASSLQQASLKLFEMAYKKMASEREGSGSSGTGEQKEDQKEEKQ

B1: HIV-1 Nef protein (natural protein)
chain: MGGKWSKSSVVGWPTVRERMRRAEPAADGVGAASRDLEKHGAITSSNTAATNAACAWLEAQEEEEVGFPVTPQVPLRPMTYKAAVDLSHFLKEKGGLEGLIHSQRRQDILDLWIYHTQGYFPDWQNYTPGPGVRYPLTFGWCYKLVPVEPDKVEEANKGENTSLLHPVSLHGMDDPEREVLEWRFDSRLAFHHVARELHPEYFKNC
**Q.** Which results are given for B1?
**A.** Kd (Mortalin peptide #56): 76.9 µM; koff (Mortalin peptide #56): 0.0285 s⁻¹; koff [1]: 0.000901 s⁻¹; koff [2]: 0.0226 s⁻¹; Kd (Mortalin peptide #62): 1.9 µM; koff (Mortalin peptide #62): 0.0037 s⁻¹

**Q.** With VGFPV [SMRwt peptide] as the binder, how does the Kd [3] read?
**A.** Its Kd is 8.8 µM.

**Q.** And the Kd [4]?
**A.** Its Kd is 22.6 µM.

**Q.** What about the koff [1] of the same binder?
**A.** The koff was 0.0566 s⁻¹.

**Q.** And the koff [2]?
**A.** The koff was 0.0152 s⁻¹.
